Source: patent publication US20110046068A1 (MEDICAL RESEARCH COUNCIL, published 2011)
Non-standard residues stand in square brackets, D forms with d.

B1: 276 (peptide)
peptide: Ac-[dA]NWNGFG[dL]RF-NH2
SMILES: CC(=O)N[C@H](C)C(=O)N[C@@H](CC(N)=O)C(=O)N[C@@H](Cc1c[nH]c2ccccc12)C(=O)N[C@@H](CC(N)=O)C(=O)NCC(=O)N[C@@H](Cc1ccccc1)C(=O)NCC(=O)N[C@H](CC(C)C)C(=O)N[C@@H](CCCNC(=N)N)C(=O)N[C@@H](Cc1ccccc1)C(N)=O
B2: 244 (peptide)
peptide: Ac-[dF]NWNGFG[dW]RF-NH2
SMILES: CC(=O)N[C@H](Cc1ccccc1)C(=O)N[C@@H](CC(N)=O)C(=O)N[C@@H](Cc1c[nH]c2ccccc12)C(=O)N[C@@H](CC(N)=O)C(=O)NCC(=O)N[C@@H](Cc1ccccc1)C(=O)NCC(=O)N[C@H](Cc1c[nH]c2ccccc12)C(=O)N[C@@H](CCCNC(=N)N)C(=O)N[C@@H](Cc1ccccc1)C(N)=O
B3: 277 (peptide)
peptide: Ac-[dA]NWN[dA]FGLRF-NH2
SMILES: CC(=O)N[C@H](C)C(=O)N[C@@H](CC(N)=O)C(=O)N[C@@H](Cc1c[nH]c2ccccc12)C(=O)N[C@@H](CC(N)=O)C(=O)N[C@H](C)C(=O)N[C@@H](Cc1ccccc1)C(=O)NCC(=O)N[C@@H](CC(C)C)C(=O)N[C@@H](CCCNC(=N)N)C(=O)N[C@@H](Cc1ccccc1)C(N)=O
B4: 237 (peptide)
peptide: Ac-[dY]NWNGFGWRF-NH2
SMILES: CC(=O)N[C@H](Cc1ccc(O)cc1)C(=O)N[C@@H](CC(N)=O)C(=O)N[C@@H](Cc1c[nH]c2ccccc12)C(=O)N[C@@H](CC(N)=O)C(=O)NCC(=O)N[C@@H](Cc1ccccc1)C(=O)NCC(=O)N[C@@H](Cc1c[nH]c2ccccc12)C(=O)N[C@@H](CCCNC(=N)N)C(=O)N[C@@H](Cc1ccccc1)C(N)=O
B5: 245 (peptide)
peptide: Ac-[dY]NWNG[dW]G[dW]RF-NH2
SMILES: CC(=O)N[C@H](Cc1ccc(O)cc1)C(=O)N[C@@H](CC(N)=O)C(=O)N[C@@H](Cc1c[nH]c2ccccc12)C(=O)N[C@@H](CC(N)=O)C(=O)NCC(=O)N[C@H](Cc1c[nH]c2ccccc12)C(=O)NCC(=O)N[C@H](Cc1c[nH]c2ccccc12)C(=O)N[C@@H](CCCNC(=N)N)C(=O)N[C@@H](Cc1ccccc1)C(N)=O
B6: 246 (peptide)
peptide: Ac-[dA]NWNG[dW]G[dW]RF-NH2
SMILES: CC(=O)N[C@H](C)C(=O)N[C@@H](CC(N)=O)C(=O)N[C@@H](Cc1c[nH]c2ccccc12)C(=O)N[C@@H](CC(N)=O)C(=O)NCC(=O)N[C@H](Cc1c[nH]c2ccccc12)C(=O)NCC(=O)N[C@H](Cc1c[nH]c2ccccc12)C(=O)N[C@@H](CCCNC(=N)N)C(=O)N[C@@H](Cc1ccccc1)C(N)=O
B7: 248 (peptide)
peptide: Ac-[dA]NWNGFGWRF-NH2
SMILES: CC(=O)N[C@H](C)C(=O)N[C@@H](CC(N)=O)C(=O)N[C@@H](Cc1c[nH]c2ccccc12)C(=O)N[C@@H](CC(N)=O)C(=O)NCC(=O)N[C@@H](Cc1ccccc1)C(=O)NCC(=O)N[C@@H](Cc1c[nH]c2ccccc12)C(=O)N[C@@H](CCCNC(=N)N)C(=O)N[C@@H](Cc1ccccc1)C(N)=O
B8: 243 (peptide)
peptide: Ac-[dW]NWNGFG[dW]RF-NH2
SMILES: CC(=O)N[C@H](Cc1c[nH]c2ccccc12)C(=O)N[C@@H](CC(N)=O)C(=O)N[C@@H](Cc1c[nH]c2ccccc12)C(=O)N[C@@H](CC(N)=O)C(=O)NCC(=O)N[C@@H](Cc1ccccc1)C(=O)NCC(=O)N[C@H](Cc1c[nH]c2ccccc12)C(=O)N[C@@H](CCCNC(=N)N)C(=O)N[C@@H](Cc1ccccc1)C(N)=O
B9: 247 (peptide)
peptide: Ac-[dA]NWNSFG[dW]RF-NH2
SMILES: CC(=O)N[C@H](C)C(=O)N[C@@H](CC(N)=O)C(=O)N[C@@H](Cc1c[nH]c2ccccc12)C(=O)N[C@@H](CC(N)=O)C(=O)N[C@@H](CO)C(=O)N[C@@H](Cc1ccccc1)C(=O)NCC(=O)N[C@H](Cc1c[nH]c2ccccc12)C(=O)N[C@@H](CCCNC(=N)N)C(=O)N[C@@H](Cc1ccccc1)C(N)=O
B10: 275 (peptide)
peptide: Ac-[dA]NWN[dP]FG[dW]RF-NH2
SMILES: CC(=O)N[C@H](C)C(=O)N[C@@H](CC(N)=O)C(=O)N[C@@H](Cc1c[nH]c2ccccc12)C(=O)N[C@@H](CC(N)=O)C(=O)N1CCC[C@@H]1C(=O)N[C@@H](Cc1ccccc1)C(=O)NCC(=O)N[C@H](Cc1c[nH]c2ccccc12)C(=O)N[C@@H](CCCNC(=N)N)C(=O)N[C@@H](Cc1ccccc1)C(N)=O
B11: 274 (peptide)
peptide: Ac-[dA]NWNPFG[dW]RF-NH2
SMILES: CC(=O)N[C@H](C)C(=O)N[C@@H](CC(N)=O)C(=O)N[C@@H](Cc1c[nH]c2ccccc12)C(=O)N[C@@H](CC(N)=O)C(=O)N1CCC[C@H]1C(=O)N[C@@H](Cc1ccccc1)C(=O)NCC(=O)N[C@H](Cc1c[nH]c2ccccc12)C(=O)N[C@@H](CCCNC(=N)N)C(=O)N[C@@H](Cc1ccccc1)C(N)=O

biological target: T1, human gpr-54 receptor (human, UniProt Q969F8 1-398); experiment: cell-based or functional assay
T1 sequence (Q969F8 whole entry): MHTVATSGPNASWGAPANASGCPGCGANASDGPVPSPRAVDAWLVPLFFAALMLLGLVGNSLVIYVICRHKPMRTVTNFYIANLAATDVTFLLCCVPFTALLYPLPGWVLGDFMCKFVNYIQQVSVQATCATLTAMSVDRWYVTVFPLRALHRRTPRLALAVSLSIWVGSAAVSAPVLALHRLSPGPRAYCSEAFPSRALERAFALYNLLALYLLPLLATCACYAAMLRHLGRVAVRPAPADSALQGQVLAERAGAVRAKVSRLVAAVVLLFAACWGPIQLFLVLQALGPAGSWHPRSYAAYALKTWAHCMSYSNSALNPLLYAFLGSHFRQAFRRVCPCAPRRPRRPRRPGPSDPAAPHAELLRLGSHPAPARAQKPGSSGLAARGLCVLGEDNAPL

Binder	Inhibition of IP stimulation by 10nM Agonist: % Inhibition of Max	Inhibition of IP stimulation by 10nM Agonist: IC50	IP stimulation (IC50), peptide alone
Ac-[dY][dN]WNGFG[dW]RF-NH2 (also: further groups not given here) [242]	15%	–	–
B1	65%	0.001 nM	–
B2	60%	10 nM	–
Ac-[dA]NWNGFGL[dR]F-NH2 [278]	47%	> 100 nM	–
B3	57%	0.05 nM	1500 nM
B4	0%	–	6400 nM
B5	66%	10000 nM	–
B6	80%	50 nM	–
Ac-[dY][dN]WNGFGWRF-NH2 [240]	39%	–	–
B7	64%	5000 nM	–
Ac-[dY][dN]WNSFG[dW]RF-NH2 [241]	24%	–	–
B8	55%	10 nM	–
B9	80%	8 nM	–
B10	44%	> 100 nM	21 nM
B11	73%	0.1 nM	530000 nM
Ac-RRMKWKKY[dA]NWNGFG[dW]RF-NH2 [Peptide 271]	57%	5 nM	–

biological target: T1, human gpr-54 receptor; experiment: cell-based or functional assay; remark: another data set of the same source

Binder	IP dose response, peptide alone: EC50 (unlabelled number beside rising curve) [237]
B4	6380 nM
